Source: patent US20220002669A1 (JUNO THERAPEUTICS, published 2022)

Assays:
[1] = molecular target: T1, CD4 on the surface of T cells from a human donor apheresis sample (human, UniProt P01730 26-458); experiment: column affinity selection of T cells from a human apheresis sample
T1 construct: whole, on cells; also called selection marker

[2] = molecular target: T2, STREP-TACTIN M2 covalently coupled to Sephadex G50 stationary phase (Streptomyces avidinii, UniProt P22629 38-163, covalently coupled to cyanogen bromide (CNBr) activated Sephadex G50 resin); experiment: loading of tagged Fab onto Strep-Tactin Sephadex G50 resin
T2 construct: Here it is immobilised on the chromatography matrix; also called immobilized Strep-Tactin reagent; selection reagent

B1: anti-CD4 binding Fab fragment obtained from m13B8.2, heavy chain carboxy-terminally fused with a Twin Strep-Tag (Fab, V domains shown)
VH: QVQLKQSGPGLVQPSQSLSITCTVSGFSLTTFGVHWVRQSPGKGLEWLGVIWASGITDYNVPFMSRLSITKDNSKSQVFFKLNSLQPDDTAIYYCAKNDPGTGFAYWGQGTLVTVSA
VL: DIQMTQSPASLSASVGETVTFTCRASEMIYSYLAWYQQKQGKSPQLLVHDAKTLAEGVPSRFSGGGSGTQFSLKINTLQPEDFGTYYCQAHYGNPPTFGGGTKLEIKR
notes: also called anti-CD4 Fab
B1: binds [1]; binds [2].
